One may read the koff as the first-order rate constant of dissociation. A high value points to fast dissociation. As usually defined, the Kd is the free concentration of one partner at which half of the binding sites on the other are occupied at equilibrium, for simple one-to-one binding. High values mean a looser complex, low ones a tighter complex.

The source of these data is patent publication US20190071490A1 (BETH ISRAEL DEACONESS MEDICAL CENTER, published 2019).

Experiment [1] has as its target T1, human α-CGRP 1-37 (WT) (human, C-terminal amide; N-terminal biotin when captured on the SA chip; 125I-labelled in the radioligand assay).
T1 construct: also called α-human
T1 peptide: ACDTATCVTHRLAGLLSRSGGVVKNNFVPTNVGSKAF
As to the kind of experiment: Biacore, 37°C, Fab over CGRP on SA chip. The procedure:
(§1) Biacore assay for affinity determination. […] All Biacore assays were conducted in HBS-EP running buffer (10 mM HEPES pH 7.4, 150 mM NaCl, 3 mM EDTA, 0.005% v/v polysorbate P20). CGRP surfaces were prepared by diluting the N-biotinylated CGRP to a concentration of less than 0.001 mg/mL into HBS-EP buffer and injecting it across the SA sensor chip using variable contact times. […] Samples were typically injected for 1 minute at 100 μL/min and dissociation times of at least 10 minutes were allowed. […] An entire titration series (typically generated in duplicate) was fit globally to a 1:1 Langmuir binding model using the BIAevaluation program. This returned a unique pair of association and dissociation kinetic rate constants (respectively, kₒₙ and koff) for each binding interaction, whose ratio gave the equilibrium dissociation constant (KD=koff/kₒₙ). […]
Background: Surface plasmon resonance follows binding to a sensor surface in real time, without labels.

Experiment [2] has as its target T2, rat α-CGRP (1-37) (rat, C-terminal amide; N-terminal biotin when captured on the SA chip).
T2 construct: also called rat α (1-37); α-rat
T2 peptide: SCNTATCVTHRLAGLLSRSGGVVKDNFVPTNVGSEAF
As to the kind of experiment: Biacore, 37°C, Fab over CGRP on SA chip. The procedure:
as §1

B1: G1 variant M1 Fab (Fab, V domains shown)
VH: EVQLVESGGGLVQPGGSLRLSCAASGFTFSNYWISWVRQAPGKGLEWVAEIRSESDASATHYAEAVKGRFTISRDNAKNSLYLQMNSLRAEDTAVYYCLLYFDYGLAIQNYWGQGTLVTVSS
VL: EIVLTQSPATLSLSPGERATLSCKASKRVTTYVSWYQQKPGQAPRLLIYGASNRYLGIPARFSGSGSGTDFTLTISSLEPEDFAVYYCSQSYNYPYTFGQGTKLEIK
notes: Fab; constant domains as m1
For the molecule B1, the dissociation rate constant (koff) stood at 0.000173 s⁻¹ in experiment [1] and 0.0011 s⁻¹ in experiment [2].

B2: G1 variant M13 Fab (Fab, V domains shown)
VH: EVQLVESGGGLVQPGGSLRLSCAASGFTFSNYWISWVRQAPGKGLEWVAEIRSESDASATHYAEAVKGRFTISRDNAKNSLYLQMNSLRAEDTAVYYCTGYFDYGLAIQNYWGQGTLVTVSS
VL: EIVLTQSPATLSLSPGERATLSCKASKRVTTYVSWYQQKPGQAPRLLIYGASNRYLGIPARFSGSGSGTDFTLTISSLEPEDFAVYYCSQSYNYPYTFGQGTKLEIK
notes: Fab; constant domains as m1
On to B2, for which, in experiment [1], the Kd came to 1.16 nM and the off-rate (koff) is 0.000186 s⁻¹. In experiment [2], the Kd came to 102 nM and the koff worked out at 0.00184 s⁻¹.

B3: G1 variant M19 Fab (Fab, V domains shown)
VH: EVQLVESGGGLVQPGGSLRLSCAASGFTFSNYWISWVRQAPGKGLEWVAEIRSESDASATHYAEAVKGRFTISRDNAKNSLYLQMNSLRAEDTAVYYCVRYFDYGLAIQNYWGQGTLVTVSS
VL: EIVLTQSPATLSLSPGERATLSCKASKRVTTYVSWYQQKPGQAPRLLIYGASNRYLGIPARFSGSGSGTDFTLTISSLEPEDFAVYYCSQSYNYPYTFGQGTKLEIK
notes: Fab; constant domains as m1
In experiment [1], B3 registered a Kd of at most 0.06 nM and a koff of at most 1e-05 s⁻¹.

B4: G1 variant M2 Fab (Fab, V domains shown)
VH: EVQLVESGGGLVQPGGSLRLSCAASGFTFSNYWISWVRQAPGKGLEWVAEIRSESDASATHYAEAVKGRFTISRDNAKNSLYLQMNSLRAEDTAVYYCARYFDYGLAIQNYWGQGTLVTVSS
VL: EIVLTQSPATLSLSPGERATLSCKASKRVTTYVSWYQQKPGQAPRLLIYGASNRYLGIPARFSGSGSGTDFTLTISSLEPEDFAVYYCSQSYNYPYTFGQGTKLEIK
notes: Fab; constant domains as m1
As for B4, the Kd worked out at 3 nM in experiment [1] and 58 nM in experiment [2]. Further, the koff in experiment [1] is 0.00031 s⁻¹; in experiment [2], 0.0026 s⁻¹.

B5: G1 variant M11 Fab (Fab, V domains shown)
VH: EVQLVESGGGLVQPGGSLRLSCAASGFTFSNYWISWVRQAPGKGLEWVAEIRSESDASATHYAEAVKGRFTISRDNAKNSLYLQMNSLRAEDTAVYYCSTYFDYGLAIQNYWGQGTLVTVSS
VL: EIVLTQSPATLSLSPGERATLSCKASKRVTTYVSWYQQKPGQAPRLLIYGASNRYLGIPARFSGSGSGTDFTLTISSLEPEDFAVYYCSQSYNYPYTFGQGTKLEIK
notes: Fab; constant domains as m1
Consider B5, for which, in experiment [1], the affinity, expressed as Kd, was 1.77 nM and the koff worked out at 0.000283 s⁻¹. Also, in experiment [2], the Kd came to 268 nM and the koff amounted to 0.00483 s⁻¹.

B6: G1 variant M3 Fab (Fab, V domains shown)
VH: EVQLVESGGGLVQPGGSLRLSCAASGFTFSNYWISWVRQAPGKGLEWVAEIRSESDASATHYAEAVKGRFTISRDNAKNSLYLQMNSLRAEDTAVYYCASYFDYGLAIQNYWGQGTLVTVSS
VL: EIVLTQSPATLSLSPGERATLSCKASKRVTTYVSWYQQKPGQAPRLLIYGASNRYLGIPARFSGSGSGTDFTLTISSLEPEDFAVYYCSQSYNYPYTFGQGTKLEIK
notes: Fab; constant domains as m1
In experiment [1], B6 yielded a Kd of 1.7 nM and a koff of 0.00021 s⁻¹. In experiment [2], this molecule displayed a Kd of 61 nM and a koff of 0.002 s⁻¹.

B7: G1 variant M10 Fab (Fab, V domains shown)
VH: EVQLVESGGGLVQPGGSLRLSCAASGFTFSNYWISWVRQAPGKGLEWVAEIRSESDASATHYAEAVKGRFTISRDNAKNSLYLQMNSLRAEDTAVYYCSSYFDYGLAIQNYWGQGTLVTVSS
VL: EIVLTQSPATLSLSPGERATLSCKASKRVTTYVSWYQQKPGQAPRLLIYGASNRYLGIPARFSGSGSGTDFTLTISSLEPEDFAVYYCSQSYNYPYTFGQGTKLEIK
notes: Fab; constant domains as m1
As to B7, in experiment [1], binding was characterised by a dissociation constant (Kd) of 1.08 nM and the off-rate (koff) worked out at 0.000173 s⁻¹. In experiment [2], this molecule yielded a dissociation constant (Kd) of 83.9 nM and a koff of 0.00151 s⁻¹.

B8: G1 variant M14 Fab (Fab, V domains shown)
VH: EVQLVESGGGLVQPGGSLRLSCAASGFTFSNYWISWVRQAPGKGLEWVAEIRSESDASATHYAEAVKGRFTISRDNAKNSLYLQMNSLRAEDTAVYYCTKYFDYGLAIQNYWGQGTLVTVSS
VL: EIVLTQSPATLSLSPGERATLSCKASKRVTTYVSWYQQKPGQAPRLLIYGASNRYLGIPARFSGSGSGTDFTLTISSLEPEDFAVYYCSQSYNYPYTFGQGTKLEIK
notes: Fab; constant domains as m1
In experiment [1], B8 registered an equilibrium dissociation constant (Kd) of at most 0.06 nM and a koff of at most 1e-05 s⁻¹.

B9: G1 variant M6 Fab (Fab, V domains shown)
VH: EVQLVESGGGLVQPGGSLRLSCAASGFTFSNYWISWVRQAPGKGLEWVAEIRSESDASATHYAEAVKGRFTISRDNAKNSLYLQMNSLRAEDTAVYYCNAYFDYGLAIQNYWGQGTLVTVSS
VL: EIVLTQSPATLSLSPGERATLSCKASKRVTTYVSWYQQKPGQAPRLLIYGASNRYLGIPARFSGSGSGTDFTLTISSLEPEDFAVYYCSQSYNYPYTFGQGTKLEIK
notes: Fab; constant domains as m1
Consider B9, for which, in experiment [1], binding was put at a Kd of 0.83 nM and the koff was determined as 0.000133 s⁻¹. In experiment [2], this molecule showed a Kd of 43.6 nM and a koff of 0.000784 s⁻¹.

B10: G1 variant M15 Fab (Fab, V domains shown)
VH: EVQLVESGGGLVQPGGSLRLSCAASGFTFSNYWISWVRQAPGKGLEWVAEIRSESDASATHYAEAVKGRFTISRDNAKNSLYLQMNSLRAEDTAVYYCTPYFDYGLAIQNYWGQGTLVTVSS
VL: EIVLTQSPATLSLSPGERATLSCKASKRVTTYVSWYQQKPGQAPRLLIYGASNRYLGIPARFSGSGSGTDFTLTISSLEPEDFAVYYCSQSYNYPYTFGQGTKLEIK
notes: Fab; constant domains as m1
Turning to B10, the values for the Kd in experiment [1] and in experiment [2] were 0.1 nM and 63.9 nM, respectively. In addition, the values for the koff in experiment [1] and in experiment [2] were 1.58e-05 s⁻¹ and 0.00115 s⁻¹, respectively.

B11: G1 variant M9 Fab (Fab, V domains shown)
VH: EVQLVESGGGLVQPGGSLRLSCAASGFTFSNYWISWVRQAPGKGLEWVAEIRSESDASATHYAEAVKGRFTISRDNAKNSLYLQMNSLRAEDTAVYYCNYYFDYGLAIQNYWGQGTLVTVSS
VL: EIVLTQSPATLSLSPGERATLSCKASKRVTTYVSWYQQKPGQAPRLLIYGASNRYLGIPARFSGSGSGTDFTLTISSLEPEDFAVYYCSQSYNYPYTFGQGTKLEIK
notes: Fab; constant domains as m1
For B11, in experiment [1], the Kd is at most 0.06 nM and the koff was at most 1e-05 s⁻¹.

B12: G1 variant M12 Fab (Fab, V domains shown)
VH: EVQLVESGGGLVQPGGSLRLSCAASGFTFSNYWISWVRQAPGKGLEWVAEIRSESDASATHYAEAVKGRFTISRDNAKNSLYLQMNSLRAEDTAVYYCSVYFDYGLAIQNYWGQGTLVTVSS
VL: EIVLTQSPATLSLSPGERATLSCKASKRVTTYVSWYQQKPGQAPRLLIYGASNRYLGIPARFSGSGSGTDFTLTISSLEPEDFAVYYCSQSYNYPYTFGQGTKLEIK
notes: Fab; constant domains as m1
In experiment [1], B12 had a Kd of 0.63 nM and a koff of 0.000101 s⁻¹. In experiment [2], this molecule had a Kd of 108 nM and a koff of 0.00194 s⁻¹.

B13: G1 variant M8 Fab (Fab, V domains shown)
VH: EVQLVESGGGLVQPGGSLRLSCAASGFTFSNYWISWVRQAPGKGLEWVAEIRSESDASATHYAEAVKGRFTISRDNAKNSLYLQMNSLRAEDTAVYYCNGYFDYGLAIQNYWGQGTLVTVSS
VL: EIVLTQSPATLSLSPGERATLSCKASKRVTTYVSWYQQKPGQAPRLLIYGASNRYLGIPARFSGSGSGTDFTLTISSLEPEDFAVYYCSQSYNYPYTFGQGTKLEIK
notes: Fab; constant domains as m1
In experiment [1], B13 returned a Kd of 0.58 nM and a koff of 9.2e-05 s⁻¹. In experiment [2], the Kd came out at 41.4 nM and the koff was 0.000745 s⁻¹.

B14: G1 variant M4 Fab (Fab, V domains shown)
VH: EVQLVESGGGLVQPGGSLRLSCAASGFTFSNYWISWVRQAPGKGLEWVAEIRSESDASATHYAEAVKGRFTISRDNAKNSLYLQMNSLRAEDTAVYYCAVYFDYGLAIQNYWGQGTLVTVSS
VL: EIVLTQSPATLSLSPGERATLSCKASKRVTTYVSWYQQKPGQAPRLLIYGASNRYLGIPARFSGSGSGTDFTLTISSLEPEDFAVYYCSQSYNYPYTFGQGTKLEIK
notes: Fab; constant domains as m1
Turning to B14, the Kd was 0.43 nM in experiment [1] and 84.4 nM in experiment [2]. In addition, the koff in experiment [1] stood at 6.95e-05 s⁻¹; in experiment [2], 0.00152 s⁻¹.

B15: G1 variant M7 Fab (Fab, V domains shown)
VH: EVQLVESGGGLVQPGGSLRLSCAASGFTFSNYWISWVRQAPGKGLEWVAEIRSESDASATHYAEAVKGRFTISRDNAKNSLYLQMNSLRAEDTAVYYCNCYFDYGLAIQNYWGQGTLVTVSS
VL: EIVLTQSPATLSLSPGERATLSCKASKRVTTYVSWYQQKPGQAPRLLIYGASNRYLGIPARFSGSGSGTDFTLTISSLEPEDFAVYYCSQSYNYPYTFGQGTKLEIK
notes: Fab; constant domains as m1
On to B15, for which, in experiment [1], binding was characterised by a dissociation constant (Kd) of 1.52 nM and the koff turned out to be 0.000243 s⁻¹. For the same molecule, in experiment [2], binding was put at a Kd of 51 nM and the koff is 0.000918 s⁻¹.

B16: G1 variant M5 Fab (Fab, V domains shown)
VH: EVQLVESGGGLVQPGGSLRLSCAASGFTFSNYWISWVRQAPGKGLEWVAEIRSESDASATHYAEAVKGRFTISRDNAKNSLYLQMNSLRAEDTAVYYCAYYFDYGLAIQNYWGQGTLVTVSS
VL: EIVLTQSPATLSLSPGERATLSCKASKRVTTYVSWYQQKPGQAPRLLIYGASNRYLGIPARFSGSGSGTDFTLTISSLEPEDFAVYYCSQSYNYPYTFGQGTKLEIK
notes: Fab; constant domains as m1
On to B16, for which, in experiment [1], binding was put at a Kd of 0.2 nM and the koff amounted to 3.22e-05 s⁻¹. In experiment [2], this molecule came in with a Kd of 40.8 nM and a dissociation rate constant (koff) of 0.000735 s⁻¹.
